Results: the RNAGym collection of RNA variant scans (doi:10.1101/gr.219683.116)

B1: mRNA-splicing (parent)
chain: AGUUGCUGCUGGGAGCUCCAGCACAGUGAAAUGGACAGAAGGGCAGAGCAA

Variants of: B1
Assay: exon inclusion enrichment index; higher = more inclusion; WT1 exon 5 minigene, HEK293

Row | Variant | exon inclusion enrichment index
1 | G5C C6G U7C U10C G12A G13A | 1.51
2 | G5C C6G U7C U10C G46A A47G | 1.33
3 | U4G C6A U7A C9A U10A | 0.488
4 | G5A U7C G8A U10C A47U G48A | 1.85
5 | G5C C6A U7C G8A U10A A14U G15A | 0.00771
6 | G5U U7C C9A U10C | 2.66
7 | G5U C9A | 0.991
8 | G5U C9U | 0.393
9 | G5A C6G U7G C9A U17C C18U | 0.00126
10 | G5A C6G U7G C9A A47C G48C | 0.00224
11 | G5A C6A | 0.0111
12 | G5C C6A U7C G8A U10A A45G G46A | 0.559
13 | C6A U7C C9A U10C G26C U27C | 4.37
14 | G5U G8U C9U C18G | 0.139
15 | G5A U7C G8A U10C G33A G34C | 0.421
16 | C6A G8U C9A U10C | 0.728
17 | G5C C6G U7C U10C C16G U17C | 2.62
18 | G5A U7C G8A U10C A45U G46C | 1.55
19 | G5C C6G U7C U10C C44A A45U | 5.86
20 | G5A C6U U7A G8U C9A A31U U32A | 0.0012
21 | G2U G5U G8U C9U | 0.329

Row | Variant | exon inclusion enrichment index
22 | U4C G5C C6G U7C U10C | 3.81
23 | G2U U3A G5C C6A U7C G8A U10A | 0.383
24 | G5C C6A U7C G8A U10A U17G C18U | 0.0504
25 | G5A U7C G8A U10C G46A | 2.32
26 | C6A U7C C9A U10C C19U | 0.759
27 | G5A U7A U10C | 1.84
28 | C6A U7A C9A U10A G11U G12A | 0.701
29 | G5A U7C G8A U10G G11U | 2.44
30 | C6A U7A C9A U10A A47U G48C | 0.497
31 | U17G C18A | 1.73
32 | G5A U7C G8A U10A G11C | 1.63
33 | C6A U7A C9A U10A G38C A39G | 0.734
34 | G5C C6A U7C G8A C9G | 0.446
35 | G5C C6G U7C U10C G11U | 3.33
36 | G2A U3G C6A U7A C9A U10A | 0.935
37 | G8C C9U U10C | 0.579
38 | G5A U7C G8A U10C G46C A47U | 2.03
39 | G5U C6G U7C C9A U10C | 2.41
40 | G5C C6G U7G G8A U10A | 0.218
41 | G5A C6G U7G C9A U32A G33A | 0.00102
42 | G5U G8U C9U G28C A29G | 0.342

Row | Variant | exon inclusion enrichment index
43 | G5A C6U U7A G8U C9A G38C A39U | 0.0021
44 | U3A G5A C6U U7A G8U C9A | 0.265
45 | G5C C6U G8C C9U U10C C16G U17G | 0.254
46 | G5C C6U G8C C9U U10C C16G U17A | 2.4
47 | G5A C6G U7G C9A A37G G38C | 0.00203
48 | G5U G8U C9U A20U | 0.191
49 | G5U G8U C9U A25U G26C | 0.219
50 | G5C C6A U7C G8A U10A C22A A23G | 0.124
51 | G5A C6U U7A G8U C9A G26C U27C | 0.489
52 | G2U U3G | 0.359
53 | G5C C6U G8A U10C | 1.18
54 | G5C C6U G8C U10G | 1.68
55 | G5A U7C G8A U10C G42C G43C | 3.5
56 | G5U G8U C9U G46C A47U | 0.15
57 | A45C | 0.223
58 | G5C C6G U7C U10C A37G | 4.39
59 | G5A U7C G8A U10C U17A C18G | 2
60 | C6A U7C C9A U10C C22G A23G | 2.55
61 | C16A | 0.0656
62 | G5A C6G U7G C9A U32C G33C | 0.00477
63 | G5A C6G U7G C9A U32C G33A | 0.00102

Row | Variant | exon inclusion enrichment index
64 | G5C C6U G8C C9U U10C C22G A23U | 0.248
65 | C6A U7A C9A U10A A37G G38A | 0.801
66 | G5A C6U U7A G8U C9A G42U G43A | 0.282
67 | G5C C6G U7C U10C U27G G28A | 3.58
68 | G5C C6G U7C U10C U27G G28C | 2.55
69 | G5C C6A U7C G8A U10A A37C G38U | 0.0457
70 | G5A C6U U7A C9U | 0.0151
71 | G5A C6U U7A G8U C9A C22G A23C | 0.0334
72 | G5A U7C G8A U10C A31U U32C | 3.11
73 | G5A U7C G8A U10C A31U U32A | 0.229
74 | G5A U7C G8U C9G U10C | 1.91
75 | C6A U7A C9A U10A C44U A45U | 0.433
76 | G5A U7C G8A U10C A14G | 1.38
77 | G5C C6G U7C U10C G12U G13A | 0.404
78 | G5A U7C G8A U10C A37U G38U | 0.601
79 | G5C C6A U7C G8A U10A A35U C36U | 0.00092
80 | G5A U7C G8A U10C G11A G12C | 0.699
81 | G5C C6G G8C C9U U10C | 3.14
82 | G5C C6U G8C C9U U10C A20U G21A | 0.91
83 | C6A U7A C9A U10A G21C C22A | 0.729
